{
  "source": "patent US20250296994A1",
  "about": "(SYSMEX, published 2025)",
  "binders": {"B1": {"name": "15C2 antibody (monoclonal antibody derived from the hybridoma of clone 15C2) (antibody, mouse IgG1, kappa, V domains shown)", "VH": "EVQLQQFGAELVKPGASVKISCKASGYTFTDYNMDWVKQSHGKSLEWIGDINPNYDSSSYNQKFKGKATLTVDKSSSTAYMELRSLTSEDTAVYYCTRSGGTYWGQGTLVTVSA", "VL": "DIQMNQSPSSLSASLGDTITITCHASQNINVWLSWYQQKPGNIPKLLIYKASNLHTGVPSRFSGSGSGTGFSLTISSLQPEDIATYYCQQAQSYPRTFGGGTKLEIKR", "notes": "Mouse IgG1; Used as hybridoma culture supernatant (ELISA) or purified from supernatant (IB, IP); also called anti-Crtac1B antibody; antibody of the present embodiment"}},
  "key": {"[1]": {"target": "T1, recombinant Crtac1B fragment #5 (human, UniProt Q9NQ79 28-606)", "T1 construct": "also called fCrtac1B (1-608)", "T1 sequence": "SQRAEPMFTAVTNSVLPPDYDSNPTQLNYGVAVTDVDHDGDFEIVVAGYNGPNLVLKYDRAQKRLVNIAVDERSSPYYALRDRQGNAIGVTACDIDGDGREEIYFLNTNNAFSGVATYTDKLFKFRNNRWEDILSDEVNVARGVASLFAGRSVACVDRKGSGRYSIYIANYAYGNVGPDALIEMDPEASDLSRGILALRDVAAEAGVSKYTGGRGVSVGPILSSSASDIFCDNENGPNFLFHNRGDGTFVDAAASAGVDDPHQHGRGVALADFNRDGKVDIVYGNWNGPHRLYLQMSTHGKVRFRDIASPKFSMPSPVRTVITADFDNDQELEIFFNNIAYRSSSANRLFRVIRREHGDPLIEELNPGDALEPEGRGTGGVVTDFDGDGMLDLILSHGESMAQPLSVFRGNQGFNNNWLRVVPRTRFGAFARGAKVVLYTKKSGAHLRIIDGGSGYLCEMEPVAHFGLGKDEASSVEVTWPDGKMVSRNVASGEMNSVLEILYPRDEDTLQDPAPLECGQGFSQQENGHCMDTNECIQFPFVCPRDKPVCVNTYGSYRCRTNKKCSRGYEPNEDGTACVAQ", "assay": "antigen immobilized ELISA; reference fCrtac1B (1-609)", "experimental": "The positive antigen and the negative control were diluted to a concentration of 20 μg/mL with dilution buffer I (20 mM potassium phosphate buffer (pH 7.4), 150 mM NaCl). A positive antigen (50 μL) and a negative control (50 μL) were added to each well of a 96 well plate, respectively. Then, the plate was incubated at 4° C. overnight, and the positive antigen and the negative control were immobilized in the well to obtain an antigen immobilized plate. Each well was washed twice with a washing solution (250 μL, 0.05% Tween (registered trademark) 20/20 mM potassium phosphate buffer (pH 7.4), 150 mM NaCl). To each well was added a blocking buffer (250 μL, 5% skim milk/20 mM potassium phosphate buffer (pH 7.4), 150 mM NaCl), and blocked at room temperature for 90 minutes. Culture supernatant (50 μL) of each hybridoma selected by primary screening was added to each well, and the cells were incubated at 37° C. for 1 hour. Each well was washed three times with a washing solution (250 μL). The HRP-labeled anti-mouse IgG antibody (MBL, product number 330) was diluted 1:1,000 with dilution buffer II (1% skim milk/20 mM potassium phosphate buffer (pH 7.4), 150 mM NaCl). […] The plate was set in a microplate reader (Thermo Fisher Scientific, Varioskan (registered trademark) Flash), and the color development intensity at 655 nm was measured for each well. […]"}, "[2]": {"target": "T2, recombinant Crtac1B fragment #7 (negative control) (human, UniProt Q9NQ79 28-606)", "T2 construct": "also called fCrtac1B (1-606)", "T2 sequence": "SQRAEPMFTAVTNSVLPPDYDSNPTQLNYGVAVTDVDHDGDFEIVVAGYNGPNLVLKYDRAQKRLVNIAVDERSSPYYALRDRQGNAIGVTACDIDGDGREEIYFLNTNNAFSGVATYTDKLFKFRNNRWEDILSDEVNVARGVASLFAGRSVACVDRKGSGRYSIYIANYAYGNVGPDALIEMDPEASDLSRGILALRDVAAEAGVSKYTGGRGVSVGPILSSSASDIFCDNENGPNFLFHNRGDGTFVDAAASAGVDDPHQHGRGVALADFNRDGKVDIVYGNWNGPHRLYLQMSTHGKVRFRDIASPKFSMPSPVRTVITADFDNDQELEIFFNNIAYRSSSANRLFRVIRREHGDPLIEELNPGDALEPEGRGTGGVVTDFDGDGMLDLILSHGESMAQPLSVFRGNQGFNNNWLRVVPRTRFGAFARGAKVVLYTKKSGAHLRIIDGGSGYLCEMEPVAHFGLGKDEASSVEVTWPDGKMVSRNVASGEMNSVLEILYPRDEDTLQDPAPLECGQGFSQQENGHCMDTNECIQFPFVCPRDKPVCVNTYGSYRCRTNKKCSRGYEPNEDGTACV", "assay": "antigen immobilized ELISA, hybridoma culture supernatant, color development at 655 nm same as plate without antigen", "experimental": "A positive antigen (50 μL) and a negative control (50 μL) were added to each well of a 96 well plate, respectively. Then, the plate was incubated at 4° C. overnight, and the positive antigen and the negative control were immobilized in the well to obtain an antigen immobilized plate. Each well was washed twice with a washing solution (250 μL, 0.05% Tween (registered trademark) 20/20 mM potassium phosphate buffer (pH 7.4), 150 mM NaCl). To each well was added a blocking buffer (250 μL, 5% skim milk/20 mM potassium phosphate buffer (pH 7.4), 150 mM NaCl), and blocked at room temperature for 90 minutes. Culture supernatant (50 μL) of each hybridoma selected by primary screening was added to each well, and the cells were incubated at 37° C. for 1 hour. Each well was washed three times with a washing solution (250 μL). The HRP-labeled anti-mouse IgG antibody (MBL, product number 330) was diluted 1:1,000 with dilution buffer II (1% skim milk/20 mM potassium phosphate buffer (pH 7.4), 150 mM NaCl). A solution (50 μL) of this labeled antibody was added to each well, and the well was incubated at 37° C. for 1 hour. Each well was washed five times with a washing solution (250 μL). Chemical chromogenic substrate solutions (Bio-Rad, TMB Peroxidase EIA Substrate Kit) were added to respective wells at 50 μL, and the plate was allowed to stand at room temperature under shading for 30 minutes. The plate was set in a microplate reader (Thermo Fisher Scientific, Varioskan (registered trademark) Flash), and the color development intensity at 655 nm was measured for each well.\nReactivity of the monoclonal antibody contained in the culture supernatant of the hybridomas of clones 1B4 and 15C2 to the antigen was confirmed by ELISA using the 7 recombinant Crtac1B fragments described above. A specific operation was the same as that of the antigen immobilized ELISA method of Example 1. For comparison, ELISA was performed in the same manner using a 96 well plate in which no antigen was immobilized.\nIn addition, as to these monoclonal antibodies, the color development intensity when the recombinant Crtac1B fragments of #6 and #7 were used was substantially the same as that when a plate without immobilizing the antigen was used."}},
  "data": [
    {"binder": "B1", "values": [
      {"measurement": "binding relative to the binding to fCrtac1B (1-609)", "setting": "[1]", "value": "~0.1", "unit": "fold"},
      {"measurement": "binding result", "setting": "[2]", "value": "no binding"}
    ]}
  ]
}
